Test results published in patent publication US20240408235.

Key:
Test in all cases: cell_activity
[1] = system: AAT 9-10x.311 meganuclease (synthetic construct (I-CreI derived)?); settings: PiZ mouse liver, AAV8; groups 1, 3, 4 (~10% in group 2); site highly methylated
[2] = system: AAT 35-36x.70 meganuclease (synthetic construct (I-CreI derived)?); settings: PiZ mouse liver, scAAV repair (3.5% ssAAV)
[3] = system: AAT 37-38x.61 meganuclease (synthetic construct (I-CreI derived)?); settings: Hep3B, day 6, 50 ng mRNA
[4] = system: AAT 37-38L.262 meganuclease (synthetic construct (I-CreI derived)?); settings: PiZ mouse liver, LNP-A 0.5 mg/kg; 45% at low dose
[5] = system: AAT 37-38L.167 meganuclease (synthetic construct (I-CreI derived)?); settings: HEK293, 25 ng RNA
[6] = system: AAT 37-38x.50 meganuclease (synthetic construct (I-CreI derived)?); settings: PiZ mouse liver, AAV8 delivery with repair template
[7] = system: AAT 37-38L.24 meganuclease (synthetic construct (I-CreI derived)?); settings: HEK293, 25 ng RNA
[8] = system: AAT 37-38L.158 meganuclease (synthetic construct (I-CreI derived)?); settings: HEK293, 25 ng RNA
[9] = system: AAT 37-38L.175 meganuclease (synthetic construct (I-CreI derived)?); settings: HEK293, 25 ng RNA
[10] = system: AAT 41-42L.185 meganuclease (synthetic construct (I-CreI derived)?); settings: HEK293, 25 ng RNA
[11] = system: AAT 41-42L.104 meganuclease (synthetic construct (I-CreI derived)?); settings: HEK293, 25 ng RNA
[12] = system: AAT 41-42x.32 meganuclease (synthetic construct (I-CreI derived)?); settings: Hep3B, day 6, 50 ng mRNA
[13] = system: AAT 41-42L.42 meganuclease (synthetic construct (I-CreI derived)?); settings: HEK293, 25 ng RNA
[14] = system: AAT 41-42L.294 meganuclease (synthetic construct (I-CreI derived)?); settings: HEK293, 25 ng RNA
[15] = system: AAT 41-42L.153 meganuclease (synthetic construct (I-CreI derived)?); settings: HEK293, 25 ng RNA
[16] = system: AAT 33-34x.13 meganuclease (synthetic construct (I-CreI derived)?); settings: PiZ mouse liver, ssAAV repair (11% scAAV)
[17] = system: AAT 43-44L.384 meganuclease (synthetic construct (I-CreI derived)?); settings: HEK293, 25 ng RNA
[18] = system: AAT 43-44L.276 meganuclease (synthetic construct (I-CreI derived)?); settings: HEK293, 25 ng RNA
[19] = system: AAT 43-44L.105 meganuclease (synthetic construct (I-CreI derived)?); settings: PiZ mouse liver, AAV8 delivery with repair template
[20] = system: AAT 43-44L.132 meganuclease (synthetic construct (I-CreI derived)?); settings: HEK293, 25 ng RNA
[21] = system: AAT 43-44L.47 meganuclease (synthetic construct (I-CreI derived)?); settings: HEK293, 25 ng RNA
[22] = system: AAT 43-44x.58 meganuclease (synthetic construct (I-CreI derived)?); settings: PiZ mouse liver, AAV8 delivery with repair template

Sequence: TGCCCGCTCACACCAGACCCTG (double strand) [AAT 9-10 recognition sequence]
- activity [1]: 20 % indels

Sequence: GGCCTGGTCACACTTGGGTTTA (double strand) [AAT 35-36 recognition sequence]
- activity [2]: 7.5 % insertions

Sequence: CCCCACTTTGCACAACTGGGGA (double strand) [AAT 37-38 recognition sequence]
- activity [3]: 80 % indels
- activity [4]: 53 % indels
- activity [5]: 86 % indels
- activity [6]: 4 % insertions
- activity [7]: 90 % indels
- activity [8]: 90 % indels
- activity [9]: 90 % indels

Sequence: TGAGGATCCTTGTGAGTGTTGG (double strand) [AAT 41-42 recognition sequence]
- activity [10]: 20 % indels
- activity [11]: 50 % indels
- activity [12]: 17 % indels
- activity [13]: 77 % indels
- activity [14]: 40 % indels
- activity [15]: 50 % indels

Sequence: TTCAGACAGTTGCTCAACCTCT (double strand) [AAT 33-34 recognition sequence]
- activity [16]: 10 % insertions

Sequence: AGGACCTAGATGTAGGATTCTG (double strand) [AAT 43-44 recognition sequence]
- activity [17]: 26 % indels
- activity [18]: 16 % indels
- activity [19]: 14 % insertions
- activity [20]: 52 % indels
- activity [21]: 52 % indels
- activity [22]: 3 % insertions
